Laboratory results reported in patent KR20200098338A (dated 2020).

What was measured:
[1] = target: T1, GST-Bag Full (GST-융합 전장 BAG2 폴리펩티드) (human, UniProt O95816 1-211); test: immunoblot of lysate of HEK293T cells transfected with GST-Bag Full vector, signal at about 50 kDa
T1 construct: Expressed in HEK293T cells, detected at about 50 kDa in lysate by immunoblot; also called GST-Bag Full 벡터 발현 산물; not shown: GST tag, about 26 kDa, from pcDNA3.1+/GST vector (NovoPro Bioscience)

[2] = target: T2, 인간 BAG2 단백질 (human BAG2 protein) (human, UniProt O95816 2-211); test: immunoblot selection of hybridoma clones
T2 construct: also called BAG2 폴리펩티드
T2 sequence (O95816 2-211 limits assumed): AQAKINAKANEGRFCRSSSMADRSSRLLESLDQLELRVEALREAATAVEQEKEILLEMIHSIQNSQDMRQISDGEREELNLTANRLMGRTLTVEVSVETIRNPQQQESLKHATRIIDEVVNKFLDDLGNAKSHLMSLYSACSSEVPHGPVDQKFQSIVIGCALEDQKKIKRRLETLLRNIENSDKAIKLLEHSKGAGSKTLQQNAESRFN

[3] = target: T2, 인간 BAG2 단백질 (human BAG2 protein); test: immunoblot of MDA-MB-231 cell lysate, antibody from hybridoma culture at 1/2000

T1 sequence (O95816 whole entry): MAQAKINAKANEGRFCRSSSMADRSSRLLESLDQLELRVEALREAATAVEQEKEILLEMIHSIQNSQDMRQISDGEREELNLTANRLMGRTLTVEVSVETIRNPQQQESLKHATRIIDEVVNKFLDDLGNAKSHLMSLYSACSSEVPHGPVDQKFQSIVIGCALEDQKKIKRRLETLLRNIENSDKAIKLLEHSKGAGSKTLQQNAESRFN

| Binder | binding result [1] | binding result [2] | binding result [3] |
| --- | --- | --- | --- |
| 3F12 항체 (항-BAG2 단일클론성 항체) (antibody, V domains shown, Mouse hybridoma monoclonal antibody) VH: QVQLQESGPDLVKPSQSLSLTCTVTGYSITSGYSWHWIRQFPGNKLEWMGYIYYRGSTNYNPSLKSRISITRDTSKNQFFLLLKSVTTEDTATYYCAREAYWGQGTLVTVSA VL: not shown | binds | binds |  |
| 3G8 항체 (항-BAG2 단일클론성 항체) (antibody, V domains shown, Mouse hybridoma monoclonal antibody) VH: QIQLVQSGPELKKPGETVKISCKASGYSFTKYGMNWVKQAPGKDIKWMGWINTNTGEATYGEEVKGRFAFSLETSASTAYLQINNLKNEDTATYFCARLGLRYLDYWGQGTTLTVSS VL: DIVMTQSPASLVVSLGQRATISCRASKSVSTSDYSYMHWYQQKPGQPPKVLIYLASNLESGVPARFSGSGSGTDFTLNIHPVEEEDAATYYCQHNRELPPTFGAGTKLELK | binds |  | binds |
| 2A11 항체 (항-BAG2 단일클론성 항체) (antibody, V domains shown, Mouse hybridoma monoclonal antibody) VH: QVQLQQPGAELVRPGASVTLSCKASGYTFTDYEMHWVKQTPVHGLEWIGIIDPETGGTAYNQKFKGKATLTADKSSSTAYMELRSLTSEDSAVYYCTRGKFYYSGRDYAMDYWGQGTSVTVSS VL: DVLMTQTPLSLPVSLGDQASISCRSSQSIVHSNGNTYLEWYLQKPGQSPKLLIYKVSNRFSGVPDRFSGSGSGTDFTLKISRVEAEDLGVYFCFQGSQVPPTFGGGTKLEIK | binds | binds |  |

Second part, the binder after the results:

| binding result [1] | binding result [2] | binding result [3] | Binder |
| --- | --- | --- | --- |
| binds |  | binds | 4C2 항체 (항-BAG2 단일클론성 항체) (antibody, V domains shown, Mouse hybridoma monoclonal antibody) VH: QVQLQQPGAELVRPGASVTLSCKASGYTFTDYEMHWVKQTPVHGLEWIGIIDPETGATAYNQKFKGKATLTADKSSSTAYMELRSLTSEDSAVYYCTRGKFYYSGRDYAMDYWGQGTSVTVSS VL: DVLMTQTPLSLPVSLGDQASISCRSSQSIVHSNGNTYLEWYLQKPGQSPKLLFYKVSNRFSGVPDRFSGSGSGTDFTLKISRVEAEDLGVYFCFQGSQVPPTFGGGTKLEIK |
| binds |  | binds | 8C4 항체 (항-BAG2 단일클론성 항체) (antibody, V domains shown, Mouse hybridoma monoclonal antibody) VH: QVQLQQPGAELVRPGASVTLSCKASGYTFTDYEMHWVKQTPVHGLEWIGIIDPETAGTAYNQKFKGKATLTADKSSSTAYMELRSLTSEDSAVYYCTRGKFYYSGRDYAMDYWGQGTSVTVSS VL: DVLMTQTPLSLPVSLGDQASISCRSSQSIVHSNGNTYLEWYLQKPGQSPKLLFYKVSNRFSGVPDRFSGSGSGTDFTLKISRVEAEDLGVYFCFQGSQVPPTFGGGTKLEIK |
